Data taken from doi:10.1101/525659.

Biological target: His6-tagged αSyn (human) (UniProt P37840)
Test: BLI

Kd: 15.3 µM
Substance: E234G/H363A-HYPE (from UniProt Q9BVA6 102-458) (enzyme)
